Residue numbers refer to the chain shown, from its start. Numbers in names are those of the source. * marks the point of attachment. FITC = O=C1OC2(c3ccc(O)cc3Oc3cc(O)ccc32)c2ccc(NC(=S)*)cc21

Sequence of USP20 zf-UBP domain, tag cleaved (for FP) (human) (chain, as listed by the source): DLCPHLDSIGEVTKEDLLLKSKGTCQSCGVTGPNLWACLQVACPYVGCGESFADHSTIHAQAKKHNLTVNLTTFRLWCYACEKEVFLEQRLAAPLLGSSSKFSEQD

One experiment has as its target T1, USP22 zf-UBP (Homo sapiens, UniProt Q9UPT9).
T1 chain: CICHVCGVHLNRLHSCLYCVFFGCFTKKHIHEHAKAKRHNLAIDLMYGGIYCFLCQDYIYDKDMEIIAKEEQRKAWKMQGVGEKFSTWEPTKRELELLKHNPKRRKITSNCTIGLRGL
The experiment is described as follows: fluorescence polarization (direct for FITC probes, competitive otherwise). (In fluorescence polarisation assays a small probe gives low polarisation when free and higher when bound to something large.)
The Kd is the equilibrium constant for the complex coming apart. A lower Kd goes with higher affinity. With LPSPEVMLGQSWNLWVE (FITC label on probe peptides (FITC- prefix)) [ATXN7], binding was put at a Kd of 58.4 µM.

Consider VPSLDDFAGQSWSSWVE (FITC label on probe peptides (FITC- prefix)) [ATXN7L2_18-34], for which the Kd came out at 19.4 µM.

The target in a further experiment is T2, USP33 DUSP2 domain, tag cleaved (for FP) (human, UniProt Q8TEY7 1-942).
T2 chain: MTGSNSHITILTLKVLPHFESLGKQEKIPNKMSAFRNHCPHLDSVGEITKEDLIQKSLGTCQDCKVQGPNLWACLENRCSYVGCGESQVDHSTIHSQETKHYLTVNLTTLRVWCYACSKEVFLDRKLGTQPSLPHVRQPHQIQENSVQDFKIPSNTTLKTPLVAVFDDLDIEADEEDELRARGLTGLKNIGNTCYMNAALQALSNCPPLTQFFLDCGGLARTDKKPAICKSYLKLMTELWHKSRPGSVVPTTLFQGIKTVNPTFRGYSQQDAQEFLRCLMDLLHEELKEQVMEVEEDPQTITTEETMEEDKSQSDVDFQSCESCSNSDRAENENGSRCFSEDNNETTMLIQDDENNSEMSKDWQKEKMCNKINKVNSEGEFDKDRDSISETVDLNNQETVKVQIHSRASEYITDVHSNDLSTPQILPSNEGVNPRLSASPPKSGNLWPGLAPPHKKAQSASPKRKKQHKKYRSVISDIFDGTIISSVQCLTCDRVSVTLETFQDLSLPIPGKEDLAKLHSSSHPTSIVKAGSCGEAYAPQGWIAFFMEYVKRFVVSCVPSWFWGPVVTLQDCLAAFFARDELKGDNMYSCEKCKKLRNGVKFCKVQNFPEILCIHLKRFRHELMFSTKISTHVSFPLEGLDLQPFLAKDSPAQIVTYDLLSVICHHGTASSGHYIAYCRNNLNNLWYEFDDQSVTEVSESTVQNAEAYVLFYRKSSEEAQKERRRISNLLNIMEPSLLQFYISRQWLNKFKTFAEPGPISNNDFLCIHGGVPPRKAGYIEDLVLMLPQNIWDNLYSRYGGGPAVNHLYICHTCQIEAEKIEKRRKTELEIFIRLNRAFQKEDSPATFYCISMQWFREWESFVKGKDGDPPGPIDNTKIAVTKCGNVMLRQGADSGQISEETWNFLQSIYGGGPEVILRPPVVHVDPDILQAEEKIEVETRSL
As to the kind of experiment: FP.
In the case of Ac-SDDDLAWNIAPQGLQ-NH2 [GPR137B_(348-362) peptide], the Kd was above 200 µM.

Molecule Ac-DVVDDFQLQHRHGPG-NH2 [MFSD2B_(395-409) peptide] yielded a Kd of 0.8 µM.

Ac-QLEEELFQLRQGPAG-NH2 [CCDC88B_(947-961) peptide] displayed a Kd of 40 µM.

Molecule Ac-PYIPMDGEDFQLSPICPE-NH2 [HIF2A peptide 531-548] had a Kd above 1000 µM.

A further experiment concerns the target T3, USP20 DUSP2 domain N805A (for FP) (human).
T3 chain: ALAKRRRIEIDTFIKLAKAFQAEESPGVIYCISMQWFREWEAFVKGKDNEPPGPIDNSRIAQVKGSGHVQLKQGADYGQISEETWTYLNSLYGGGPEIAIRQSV
The experiment is described as follows: FP.
Take {FITC}-SDDDLAWNIAPQGLQ-NH2 [FITC-GPR137B 348-362]: the Kd is above 130 µM.

In a further experiment the target is USP20 DUSP2 domain, tag cleaved (for FP) (human). The experiment is described as follows: FP.
Ac-SDDDLAWNIAPQGLQ-NH2 [GPR137B_(348-362) peptide] gave a Kd of 10 µM.

On to Ac-DVVDDFQLQHRHGPG-NH2 [MFSD2B_(395-409) peptide], for which the Kd turned out to be 45 µM.

Ac-QLEEELFQLRQGPAG-NH2 [CCDC88B_(947-961) peptide] registered an equilibrium dissociation constant (Kd) of 22 µM.

For {FITC}-SDDDLAWNIAPQGLQ-NH2 [FITC-GPR137B 348-362], the Kd stood at 5 µM.

On to Ac-PYIPMDGEDFQLSPICPE-NH2 [HIF2A peptide 531-548], for which the Kd was above 200 µM.

Consider Ac-PYIPMDKDFQLRSFDQLS-NH2 [HIF1A 564-581 D570K], for which binding was put at a Kd of 19 µM. This lies in the double-digit micromolar range.

Ac-PYIPMDDDFQARSFDQLS-NH2 [HIF1A 564-581 L574A] registered a Kd of 89 µM. This Kd is about 4.7-fold higher than that of the molecule before.

Regarding Ac-PYIPMDDDFQLRSFDQLS-NH2 [HIF1A 564-581], binding was characterised by a dissociation constant (Kd) of 19 µM.

Molecule Ac-PYIPMDDKFQLRSFDQLS-NH2 [HIF1A 564-581 D571K] returned a Kd of 85 µM.

The next experiment addresses T4, USP20 DUSP2 domain K833E/K835E (for FP) (human).
T4 chain: T3 chain with A17N, K45E, K47E
The experiment is described as follows: FP.
For {FITC}-SDDDLAWNIAPQGLQ-NH2 [FITC-GPR137B 348-362], the Kd was above 290 µM.

A further experiment has as its target USP20 zf-UBP domain, tag cleaved (for FP) (human). As to the kind of experiment: FP.
The molecule Ac-EKVKRRLDLDID-NH2 [CCP110_(582-593) peptide] registered a Kd above 500 µM.

As to Ac-TNSSGKMALNSPQPG-NH2 [IRAG1 302-316], the Kd was 9 µM.

Consider Ac-LQPSSKASLESTSDL-NH2 [CEP192 2073-2087], for which binding was put at a Kd of 37 µM.

The target of the next experiment is T5, USP33 zf-UBP domain, tag cleaved (for FP) (human, UniProt Q8TEY7 1-942).
T5 chain: T2 chain
As to the kind of experiment: FP.
On to Ac-EKVKRRLDLDID-NH2 [CCP110_(582-593) peptide], for which the Kd is above 250 µM.

As for Ac-TNSSGKMALNSPQPG-NH2 [IRAG1 302-316], the Kd stood at 8 µM.

Ac-LQPSSKASLESTSDL-NH2 [CEP192 2073-2087]: the Kd stood at 14 µM.

Molecule Ac-PFQPGRMALESQSPG-NH2 [USP19 874-888] had a Kd of 41 µM.
